Test results as given in patent US20240343811A1 (SHANDONG SIMCERE BIOPHARMACUTICAL, published 2024).
Positions count from the first letter of the chain named.

T1: human CD16b (NA1), full length, on FlpinCHO cells (human, UniProt O75015 17-200)
T1 construct: also called FlpinCHO-human CD16b (NA1)
T1 chain: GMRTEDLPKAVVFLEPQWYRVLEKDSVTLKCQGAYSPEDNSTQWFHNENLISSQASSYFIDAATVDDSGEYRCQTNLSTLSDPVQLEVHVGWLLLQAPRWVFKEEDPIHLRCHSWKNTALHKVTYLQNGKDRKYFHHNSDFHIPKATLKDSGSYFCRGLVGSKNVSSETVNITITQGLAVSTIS

T2: human CD16b (NA2), full length, on FlpinCHO cells (human, UniProt O75015 17-200)
T2 construct: also called FlpinCHO-human CD16b (NA2)
T2 chain: T1 chain with R20S, N49S, D66N, V90I

B1: VHH02 VHH-Fc antibody (Fc fusion)
chain: EVQLVESGGGLVQAGGSLRLSCATSGITFSSYAMGWYRQAPGKQRELVAGINRFGLTNYADSVKGRFTISRDNAKNTVYLQMTSLKSEDTAVYYCNTGGVYSHPNYYTGIYWGQGTQVTVSSEPKSSDKTHTCPPCPAPEFEGGPSVFLFPPKPKDTLMISRTPEVTCVVVAVSHEDPEVKFNWYVDGVEVHNAKTKPREEQYNSTYRVVSVLTVLHQDWLNGKEYKCKVSNKALPAPIEKTISKAKGQPREPQVYTLPPSREEMTKNQVSLTCLVKGFYPSDIAVEWESNGQPENNYKTTPPVLDSDGSFFLYSKLTVDKSRWQQGNVFSCSVMHEALHNHYTQKSLSLSPGK
B2: VHH13 VHH-Fc antibody (Fc fusion)
chain: B1 chain with L4V, T24A, G50A, N76S, S87P, N105D, I110T
B3: VHH14 VHH-Fc antibody (Fc fusion)
chain: B1 chain with T24A, G35A, A40D, G50A, Q81E, S87P, I110T
B4: VHH12-03 humanized VHH-Fc antibody (Fc fusion)
chain: EVQLVESGGGLVQPGGSLRLSCAASGITFSSYAMGWYRQAPGKQRELVAAINRFGLTNYVDSVKGRFTISRDNAKNSLYLQMNSLRAEDTAVYYCNTGGVYSHPDYYTGTYWGQGTMVTVSSEPKSSDKTHTCPPCPAPEEFGGPSVFLFPPKPKDTLMISRTPEVTCVVVAVSHEDPEVKFNWYVDGVEVHNAKTKPREEQYNSTYRVVSVLTVLHQDWLNGKEYKCKVSNKALPAPIEKTISKAKGQPREPQVYTLPPSREEMTKNQVSLTCLVKGFYPSDIAVEWESNGQPENNYKTTPPVLDSDGSFFLYSKLTVDKSRWQQGNVFSCSVMHEALHNHYTQKSLSLSPGK
B5: VHH12-02 humanized VHH-Fc antibody (Fc fusion)
chain: B4 chain with N58Y
B6: VHH12-08 humanized VHH-Fc antibody (Fc fusion)
chain: B4 chain with V60A, S62F, D72V

Target: T3, human CD16a (158F), full length, on FlpinCHO cells (human, UniProt P08637 17-254)
Assay: FACS on FlpinCHO cells
In short: (§1)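 Trypsinised cells in PBS + 2% BSA were incubated on ice for 1 hour with antibody at a range of concentrations. After washes, mean fluorescence intensity was read by flow cytometry. EC50 values were derived by curve fitting of MFI.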

Row | EC50 [nM] | Maximum mean fluorescence intensity | Binder
1 | 1.17 | 5210 | B1
2 | 0.18 | 6020 | B2
3 | 0.23 | 5750 | B3

Target: T4, human CD16a (158V), full length, on cells (human, UniProt P08637 17-254)
T4 construct: also used as target for the bought Jurkat-NFAT reporter line stably expressing human CD16a (158V); also called FlpinCHO-human CD16a (158V); FlpinCHO-CD16a (158V)
Assay: FACS on FlpinCHO cells
In short: as §1

Row | EC50 [nM] | Maximum mean fluorescence intensity | Binder
4 | 0.3 | 6000 | B1
5 | 0.24 | 6660 | B2
6 | 0.27 | 6250 | B3

Target: T1, human CD16b (NA1), full length, on …
Assay: FACS on FlpinCHO cells
In short: (§2)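 Trypsin-detached FlpinCHO cells expressing full-length CD16b were blocked in PBS+2% BSA and incubated on ice for 1 hour with antibody at varying concentrations. Binding read by flow cytometry as MFI; EC50 from curve fitting.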

Row | EC50 [nM] | Maximum mean fluorescence intensity | Binder
7 | 4.27 | 31900 | B1
8 | 0.77 | 51400 | B2
9 | 0.93 | 41900 | B3

Target: T2, human CD16b (NA2), full length, on …
Assay: FACS on FlpinCHO cells
In short: as §2

Row | EC50 [nM] | Maximum mean fluorescence intensity | Binder
10 | 5.45 | 52400 | B1
11 | 1.11 | 70200 | B2
12 | 1.44 | 61400 | B3

Target: T5, CD16 on primary human NK cells (human, UniProt P08637 17-254)
T5 construct: whole, on cells; also called resting NK cells
Assay: FACS on human NK cells
In short: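 Freshly prepared human NK cells were resuspended at 2×10⁶ cells/ml in PBS+2% (w/w) BSA and incubated 1 h on ice with antibody at varying concentrations. After five PBS washes, flow cytometry gave mean fluorescence intensity, and EC50 was fitted from the MFI curve.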

Row | EC50 [nM] | Maximum mean fluorescence intensity | Binder
13 | 0.15 | 2630 | B2
14 | 0.17 | 2620 | B3

Target: T6, cynomolgus monkey CD16, full length, on FlpinCHO cells (cynomolgus monkey, UniProt Q8SPW2 17-254)
T6 construct: also called FlpinCHO-cyno CD16; Flipin CHO-cyno CD16
T6 sequence (Q8SPW2 other isoform, or with tags, fused parts or gaps limits assumed): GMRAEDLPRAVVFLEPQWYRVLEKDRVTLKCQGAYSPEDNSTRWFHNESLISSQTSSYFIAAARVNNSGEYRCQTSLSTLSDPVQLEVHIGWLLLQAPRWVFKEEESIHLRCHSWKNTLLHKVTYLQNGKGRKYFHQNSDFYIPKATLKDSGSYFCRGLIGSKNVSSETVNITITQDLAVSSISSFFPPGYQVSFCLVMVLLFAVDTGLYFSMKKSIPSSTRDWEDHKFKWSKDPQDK
Assay: FACS on FlpinCHO cells
Protocol: (§3) The required cells were scale-up cultured in a T-75 cell culture flask to the logarithmic growth phase. The medium was aspirated, and the cells were washed twice with a PBS buffer and then digested with trypsin. After the digestion was terminated, the cells were washed twice with the PBS buffer. The cells were counted, and then the cell pellet was resuspended with a [PBS+2% (w/w) BSA] blocking solution to 2×10⁶ cells/ml, and added to a 96-well FACS reaction plate at 50 μl/well. […] 50 μl/well of the antibody to be detected was added at different concentrations, and incubated on ice for 1 hour. […] The mixture was centrifuged and washed 5 times with PBS, and FACS (FACS Canto II, purchased from BD Company) was used for detection and result analysis. Data analysis was performed by software (CellQuest) to obtain the mean fluorescence intensity (MFI) of the cells. Then, software (GraphPad Prism8) was used for analysis, data fitting and EC50 value calculation.
(§4) Flipin CHO-cyno CD16 cells were subjected to FACS detection and data analysis according to the method of Example 3.1.

Row | EC50 [nM] | Maximum mean fluorescence intensity | Binder
15 | 0.88 | 17100 | B1
16 | 0.24 | 21400 | B2
17 | 0.18 | 16400 | B3

Target: T4, human CD16a (158V), full length, on …
Assay: cell-based or functional assay

Row | EC50, activation activity for Jurkat cell [nM] | Maximum fluorescence value | Binder
18 | 0.3 | 178000 | B1
19 | 0.02 | 165000 | B2
20 | 0.02 | 169000 | B3

Target: T3, human CD16a (158F), full length, on …
Assay: FACS on FlpinCHO cells
Remark: another data set of the same source
Protocol: as §3
(§5) The binding of a humanized antibody to FlpinCHO-human CD16a cells was detected according to the method of Example 3.1.

Row | EC50 [nM] | Maximum mean fluorescence intensity | Binder
21 | 0.48 | 8810 | B4
22 | 0.46 | 7440 | B5
23 | 0.31 | 9010 | B6

Target: T4, human CD16a (158V), full length, on …
Assay: FACS on FlpinCHO cells
Remark: another data set of the same source
Protocol: as §3, §5

Row | EC50 [nM] | Maximum mean fluorescence intensity | Binder
24 | 0.48 | 7750 | B4
25 | 0.45 | 6600 | B5
26 | 0.32 | 7920 | B6

Target: T1, human CD16b (NA1), full length, on …
Assay: FACS on FlpinCHO cells
Remark: another data set of the same source
Protocol: as §3
(§6) The binding of an antibody to be detected to FlpinCHO-human CD16b cells was detected according to the method of Example 3.1.

Row | EC50 [nM] | Maximum mean fluorescence intensity | Binder
27 | 1.37 | 47300 | B4
28 | 0.94 | 39700 | B5
29 | 0.98 | 52100 | B6

Target: T2, human CD16b (NA2), full length, on …
Assay: FACS on FlpinCHO cells
Remark: another data set of the same source
Protocol: as §3, §6

Row | Maximum mean fluorescence intensity | Binder
30 | 72700 | B4
31 | 73300 | B5
32 | 77300 | B6

Target: T6, cynomolgus monkey CD16, full length, on …
Assay: FACS on FlpinCHO cells
Remark: another data set of the same source
Protocol: as §3, §4

Row | EC50 [nM] | Maximum mean fluorescence intensity | Binder
33 | 0.8 | 18000 | B4
34 | 0.74 | 16900 | B5
35 | 0.44 | 18300 | B6

Target: T4, human CD16a (158V), full length, on …
Assay: cell-based or functional assay
Remark: another data set of the same source

Row | EC50, activation activity for Jurkat cell [nM] | Maximum fluorescence value | Binder
36 | 0.02 | 155000 | B4
37 | 0.01 | 148000 | B5
38 | 0.01 | 142000 | B6

Target: T3, human CD16a (158F), full length, on …
Assay: FACS, biotinylated antibody

Row | EC50 [nM] | Maximum mean fluorescence intensity | Binder
39 | 0.33 | 6310 | B1
40 | 0.16 | 6240 | B2
41 | 0.27 | 5510 | B3

Target: T4, human CD16a (158V), full length, on …
Assay: FACS, biotinylated antibody

Row | EC50 [nM] | Maximum mean fluorescence intensity | Binder
42 | 0.33 | 7300 | B1
43 | 0.25 | 9620 | B2
44 | 0.38 | 8180 | B3

Target: T7, Human CD16a (158F)-his (human)
T7 construct: entry holds ECD, AVI tag, linker and His tag
Assay: SPR (Biacore), antibody captured on Protein A
In short: (§7)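 Protein A–captured antibody was probed with CD16-his ECD in HBS-EP+ at 25 °C: five 2-fold dilutions from 200 nM, 240 s at 30 μL/min, dissociation up to 600 s. Glycine pH 1.5 regenerated the chip. Apparent KD came from a double-referenced 1:1 Langmuir fit.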

Row | Kd [nM] | koff [s⁻¹] | kon [M⁻¹ s⁻¹] | Binder
45 | 55.7 | 0.0244 | 438000 | B4
46 | 75.1 | 0.0237 | 316000 | B5
47 | 132 | 0.027 | 205000 | B1
48 | 22.2 | 0.0192 | 866000 | B2
49 | 25 | 0.0296 | 1.18e+06 | B3
50 | 48.6 | 0.0294 | 605000 | B6

Target: T8, Human CD16a (158V)-his (human)
T8 construct: entry holds ECD, AVI tag, linker and His tag
Assay: SPR (Biacore), antibody captured on Protein A
In short: as §7

Row | Kd [nM] | koff [s⁻¹] | kon [M⁻¹ s⁻¹] | Binder
51 | 96.5 | 0.0179 | 186000 | B1
52 | 19.8 | 0.0362 | 1.83e+06 | B2
53 | 19.3 | 0.0602 | 3.12e+06 | B3

Target: T3, human CD16a (158F), full length, on …
Assay: FACS, biotinylated antibody, +10 mg/mL human immunoglobulin

Row | EC50 [nM] | Maximum mean fluorescence intensity | Binder
54 | 1.21 | 6020 | B1
55 | 0.67 | 5830 | B2
56 | 0.91 | 5070 | B3

Target: T4, human CD16a (158V), full length, on …
Assay: as above

Row | EC50 [nM] | Maximum mean fluorescence intensity | Binder
57 | 1.18 | 7660 | B1
58 | 1.09 | 9660 | B2
59 | 1.1 | 7900 | B3
